The test concerns the target ASC^(H118A,F136A,W169A,K174A, L177A-L178A,L192A) (ASC-YFP binding site mutant) (UniProt Q9ULZ3). Put plainly: flow cytometry of ASC-YFP speck formation in transfected HEK293 cells. Particulars: parent: est. 37, read off a plot. A general note: Flow cytometry measures light scatter and fluorescence of single cells or particles in a stream.

Among the data in paper PMC8667020 are other: ASC specks (%) values, retold here.

Chain of ASC-YFP (Q9ULZ3 whole entry H118A/F163A/W169A/K174A/L177A/L178A/L192A, change not shown): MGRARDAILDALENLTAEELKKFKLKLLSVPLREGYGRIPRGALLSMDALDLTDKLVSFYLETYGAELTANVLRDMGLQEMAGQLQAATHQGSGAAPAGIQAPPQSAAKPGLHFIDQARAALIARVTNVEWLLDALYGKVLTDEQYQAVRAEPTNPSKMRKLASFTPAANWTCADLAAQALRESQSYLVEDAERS

Take “ASC-YFP (from UniProt Q9ULZ3) H118A; F136A; W169A; K174A; L177A; L178A; L192A”: the other: ASC specks (%) turned out to be 13%.
